We go through three molecules from patent US20150044246A1 (IMMATICS BIOTECHNOLOGIES, published 2015).

The target in this assay is T1, HLA-A*0201 (recombinant, refolded with peptide for tetramer production) (human).
T1 construct: Monomers were biotinylated; also called HLA-A2
In words: reconstitution of HLA-A*0201 tetramers with peptide.

B1: YVDPVITSI derived from met proto-oncogene (peptide)
peptide: YVDPVITSI
notes: MHC class I ligand eluted from renal cell carcinoma tissue; also called met-proto-oncogene peptide
B1: the binding result is recorded as “binds”.

B2: SVASTITGV from adipophilin (peptide)
peptide: SVASTITGV
notes: MHC class I ligand eluted from renal cell carcinoma tissue; also called adipophilin peptide; ADFP peptide
Regarding B2, the binding result is “binds”.

B3: ALLNIKVKL derived from keratin 18 (peptide)
peptide: ALLNIKVKL
notes: MHC class I ligand eluted from renal cell carcinoma tissue and identified by mass spectrometry; also called keratin 18 peptide; keratin 18-peptide
Turning to B3, the binding result is recorded as “binds”.
